Data published in patent publication US20210301026A1 (ULTRAHUMAN TWELVE, published 2021).
Where two headings read alike, the source gives them in different places.

T1: monomeric cynomolgus monkey CSF1R ectodomain protein (cynomolgus monkey, UniProt P07333 20-517 (human entry))
T1 construct: also called monomeric cyno CSF1R; Cyno CSF1R
T1 chain: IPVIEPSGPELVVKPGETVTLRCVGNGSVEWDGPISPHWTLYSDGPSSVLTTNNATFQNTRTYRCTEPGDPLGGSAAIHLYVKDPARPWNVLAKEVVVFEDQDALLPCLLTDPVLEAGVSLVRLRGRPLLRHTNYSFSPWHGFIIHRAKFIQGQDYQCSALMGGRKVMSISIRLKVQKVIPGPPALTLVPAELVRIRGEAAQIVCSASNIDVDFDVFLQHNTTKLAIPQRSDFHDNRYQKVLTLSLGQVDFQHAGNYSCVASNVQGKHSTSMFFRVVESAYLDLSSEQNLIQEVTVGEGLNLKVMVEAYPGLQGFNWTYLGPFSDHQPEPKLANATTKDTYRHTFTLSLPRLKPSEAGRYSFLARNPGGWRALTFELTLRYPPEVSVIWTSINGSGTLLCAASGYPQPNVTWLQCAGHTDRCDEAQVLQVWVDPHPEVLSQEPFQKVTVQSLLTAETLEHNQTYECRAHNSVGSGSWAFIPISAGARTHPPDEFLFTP

T2: cynomolgus monkey CSF1R human Fc tagged recombinant protein (cynomolgus monkey, UniProt P07333 20-517 (human entry), limits assumed)
T2 construct: also called cyno CSF1R-Fc
T2 chain: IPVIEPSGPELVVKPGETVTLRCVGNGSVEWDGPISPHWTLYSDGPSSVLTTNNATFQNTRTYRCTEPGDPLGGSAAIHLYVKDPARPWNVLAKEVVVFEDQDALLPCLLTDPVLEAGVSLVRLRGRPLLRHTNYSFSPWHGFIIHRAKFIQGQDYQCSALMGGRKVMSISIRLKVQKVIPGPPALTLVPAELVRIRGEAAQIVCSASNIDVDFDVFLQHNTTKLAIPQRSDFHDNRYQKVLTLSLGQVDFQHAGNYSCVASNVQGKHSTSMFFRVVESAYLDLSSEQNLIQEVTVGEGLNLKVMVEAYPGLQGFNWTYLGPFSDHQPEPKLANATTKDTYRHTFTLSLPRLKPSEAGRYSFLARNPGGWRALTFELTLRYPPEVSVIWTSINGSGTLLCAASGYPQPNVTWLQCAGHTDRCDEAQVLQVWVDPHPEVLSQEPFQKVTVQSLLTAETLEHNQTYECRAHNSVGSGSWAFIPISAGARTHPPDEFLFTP


What was measured:
[1] = biological target: T3, monomeric human CSF1R ectodomain protein (human, UniProt P07333 20-517); assay: SPR Biacore, IgG captured, monomeric CSF1R analyte
T3 construct: also called biotinylated monomeric human CSF1R
Description: (§1) Affinity (KD) of purified IgGs was determined via SPR with antigen in-solution on a Biacore 3000 (GE). A mouse anti-human antibody (CH1 specific) was immobilized on a CM5 Sensor Chip to a level of 2000 RU in acetate buffer at pH 4.5 using amine coupling following the Wizard instructions for two channels. One channel was used for background signal correction. The standard running buffer HBS-EP pH 7.4 was used. Regeneration was performed with a single injection of 10 μl of 10 mM Glycine at pH 1.5 at 20 μl/minute. IgG samples were injected for 2 minutes at 50 nM at 30 μl/min followed by and off-rate of 60 seconds. The monomeric ectodomain protein (human CSF1R or cynomolgus monkey CSF1R) was injected in two fold serial dilutions from 100 nM down to 3.1 nM, for 2 minutes at 30 μl/min followed by an off-rate of 300 seconds. The obtained sensorgrams were analysed using the Biacore 3000 evaluation (BIAevaluation) software. The KD was calculated by simultaneous fitting of the association and dissociation phases to a 1:1 Langmuir binding model.
(§2) Biacore analyses of binding affinity were performed for all IgGs to solution-phase, monomeric human and cyno CSF1R proteins (Table 6). […] Affinity differentials of less than 3-fold between human and cyno target orthologs are highly beneficial in pre-clinical drug development analyses as they allow more accurate design and interpretation of e.g. monkey safety, PK and PD modelling experiments.

[2] = biological target: T1, monomeric cynomolgus monkey CSF1R …; assay: SPR Biacore, IgG captured, monomeric CSF1R analyte
Description: as §1, §2

[3] = biological target: T3, monomeric human CSF1R ectodomain protein; assay: AlphaScreen competition with mu0301 IgG4(S228P) for biotinylated monomeric human CSF1R
Description: The AlphaScreen assay (Perkin Elmer) was performed in a 25 μl final volume in 384-well white microtiter plates (Greiner). The reaction buffer contained 1×PBS pH 7.3 (Oxoid, Cat. nr. BR0014G) and 0.05% (v/v) Tween® 20 (Sigma, Cat. nr. P9416). Purified IgG samples were titrated in three fold serial dilutions starting at 500 nM final concentration and incubated with biotinylated human CSF1R for 20 minutes at room temperature. […] The emission of light was measured in the EnVision multilabel plate reader (Perkin Elmer) and analysed using the EnVision manager software. Values were reported as Counts Per Second (CPS) and corrected for crosstalk. The EC50 values were calculated using the […] in GraphPad Prism software (GraphPad Software, La Jolla, Calif.).

[4] = biological target: T1, monomeric cynomolgus monkey CSF1R …; assay: SPR Biacore; KD on monomeric cyno CSF1R against KD of the same clone on monomeric human CSF1R as reference
Description: as §1

[5] = biological target: T2, cynomolgus monkey CSF1R human Fc tagged …; assay: direct titration ELISA on coated cyno CSF1R-Fc, IgG4(S228P) format, OD 450 nm
Description: (§3) Binding and cross-reactivity of the lead panel to the recombinant proteins was initially assessed by binding ELISA. The human CSF1R human Fc tagged recombinant protein and the cynomolgus monkey CSF1R human Fc tagged recombinant protein were coated to the surface of MaxiSorp™ flat-bottom 96 well plate at 1 μg/ml. The purified IgG samples were titrated in two fold serial dilutions starting from 500 nM to 0.008 nM and allowed to bind to the coated antigens. The Fabs were detected using mouse anti-c-myc antibody followed by donkey anti-mouse IgG conjugated to horseradish peroxidase. The IgGs were detected using the mouse anti-human IgG conjugated to horseradish peroxidase. Binding signals were visualized with 3,3′,5,5′-Tetramethylbenzidine Substrate Solution (TMB) and the absorbance measured at 450 nm.

[6] = biological target: T4, human CSF1R human Fc tagged recombinant protein (human, UniProt P07333 20-517); assay: direct titration ELISA on coated human CSF1R-Fc, IgG4(S228P) format, OD 450 nm
T4 construct: also called human CSF1R-Fc
Description: as §3

[7] = biological target: T3, monomeric human CSF1R ectodomain protein; assay: SPR Biacore, IgG captured, monomeric CSF1R analyte; remark: listed apart in the source
[8] = biological target: T1, monomeric cynomolgus monkey CSF1R …; assay: SPR Biacore, IgG captured, monomeric CSF1R analyte
[9] = biological target: T5, human CSF1R, membrane-presented on cells (human, UniProt P07333 20-972); assay: flow cytometry on HEK-293 cells expressing human CSF1R, MFI
T5 construct: HEK-293 cells transiently transfected with human CSF1R (flow cytometry); the native receptor on primary human monocytes in the proliferation assay; also called human CSF1R+ HEK-293 cells; CSF1R on primary human CD14+ monocytes

human insulin = biological target: T6, human insulin (human, UniProt P01308 25-54; P01308 90-110, limits assumed); assay: ELISA on human insulin (development risk, polyreactivity), binding score
T6 construct: Coated antigen of the polyreactivity ('PK-risk indicator') ELISA
T6 sequence (P01308 25-54 limits assumed, chain 1 of 2): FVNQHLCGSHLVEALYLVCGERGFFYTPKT
T6 sequence (P01308 90-110 limits assumed, chain 2 of 2): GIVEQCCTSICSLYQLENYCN

[10] = biological target: T2, cynomolgus monkey CSF1R human Fc tagged …; assay: direct titration ELISA on coated cyno CSF1R-Fc, IgG4(S228P) format, OD 450 nm
Description: as §3

[11] = biological target: T4, human CSF1R human Fc tagged recombinant …; assay: direct titration ELISA on coated human CSF1R-Fc, IgG4(S228P) format, OD 450 nm; remark: listed apart in the source
Description: as §3

Row | Binder | Kd [1] [pM] | koff [1] [s⁻¹] | kon [1] [M⁻¹ s⁻¹] | Kd [2] [pM] | koff [2] [s⁻¹] | kon [2] [M⁻¹ s⁻¹] | IC50 [3] [pM] | human/cyno affinity differential [4] [fold] | Kd [7] [pM] | koff [7] [s⁻¹] | kon [7] [M⁻¹ s⁻¹] | Kd [8] [pM] | koff [8] [s⁻¹] | kon [8] [M⁻¹ s⁻¹] | EC50 (read off the curve) [9] [pM] | binding result (human insulin) | further results
1 | 29D10 (antibody, human IgG4, V domains shown, Library-derived clone, tested as human IgG4(S228P)/Ckappa IgG; framework residue limits counted on the grafts) VH: QVQLVQSGAEVKKPGSSVKVSCKASGYTFTSYYMIWVRQAPGQGLEWMGDINPYNGGANFAQKFQGRVTITADESTSTAYMELSSLRSEDTAVYYCAREGPYFSNLYVMDYWGQGTLVTVSS VL: EIVLTQSPATLSLSPGERATLSCRASQSVSYEGENYLNWYQQKPGQAPRLLIYAASNRATGIPARFSGSGSGTDFTLTISSLEPEDFAVYYCQLSNEDLLTFGGGTKVEIK | 200 | 0.00037 | 1.9e+06 | 420 | 0.00022 | 520000 | 1930 | < 3 | – | – | – | – | – | – | – | – | –
2 | 30C11 (antibody, human IgG4, V domains shown, Library-derived clone, tested as human IgG4(S228P)/Ckappa IgG; framework residue limits counted on the grafts) VH: QVQLVQSGAEVKKPGSSVKVSCKASGYTFTSNYMIWVRQAPGQGLEWMGDINPYNGTATYAQKFQGRVTITADESTSTAYMELSSLRSEDTAVYYCAREDPYFSNLYVMDYWGQGTLVTVSS VL: EIVLTQSPATLSLSPGERATLSCRASQSVSYEGDNYLNWYQQKPGQAPRLLIYAASNLETGIPARFSGSGSGTDFTLTISSLEPEDFAVYYCQLSNQDLLTFGGGTKVEIK | – | – | – | – | – | – | – | – | – | – | – | – | – | – | – | – | binding result [5]: binds; binding result [6]: binds
3 | 29H09 (antibody, human IgG4, V domains shown, Library-derived clone, tested as human IgG4(S228P)/Ckappa IgG; framework residue limits counted on the grafts) VH: QVQLVQSGAEVKKPGSSVKVSCKASGYTFTSYYMIWVRQAPGQGLEWMGDINPYNGGANYAQKFQGRVTITADESTSTAYMELSSLRSEDTAVYYCAREGPYFSNLYVMDYWGQGTLVTVSS VL: EIVLTQSPATLSLSPGERATLSCRASQSVSYEGENYLNWYQQKPGQAPRLLIYAASNRATGIPARFSGSGSGTDFTLTISSLEPEDFAVYYCQLSNEDLLTFGGGTKVEIK | 190 | 0.00034 | 1.8e+06 | 420 | 0.00023 | 550000 | 2160 | < 3 | – | – | – | – | – | – | – | – | –
4 | 30E06 (antibody, human IgG4, V domains shown, Library-derived clone; tested as human IgG4(S228P) / human Ckappa IgG; also called 30E6; mAb-3) VH: QVQLVQSGAEVKKPGSSVKVSCKASGYTFTSYYMIWVRQAPGQGLEWMGDINPYNGGTTYAQKFQGRVTITADESTSTAYMELSSLRSEDTAVYYCAREGPYFSNLYVMDYWGQGTLVTVSS VL: EIVLTQSPATLSLSPGERATLSCRASQSVSYEGENYLAWYQQKPGQAPRLLIYAASNLATGIPARFSGSGSGTDFTLTISSLEPEDFAVYYCQLSNEDLLTFGGGTKVEIK | 110 | 0.00019 | 1.9e+06 | 250 | 0.00014 | 570000 | 1530 | < 3 | – | – | – | – | – | – | – | – | –

Further lines, with some results ahead:

Row | Kd [1] [pM] | koff [1] [s⁻¹] | kon [1] [M⁻¹ s⁻¹] | Kd [2] [pM] | koff [2] [s⁻¹] | kon [2] [M⁻¹ s⁻¹] | IC50 [3] [pM] | human/cyno affinity differential [4] [fold] | Kd [7] [pM] | koff [7] [s⁻¹] | kon [7] [M⁻¹ s⁻¹] | Kd [8] [pM] | koff [8] [s⁻¹] | kon [8] [M⁻¹ s⁻¹] | EC50 (read off the curve) [9] [pM] | binding result (human insulin) | Binder | further results
5 | – | – | – | – | – | – | – | – | 1090 | 0.00144 | 1.32e+06 | 1740 | 0.00115 | 660000 | ~700 | no binding | MH33 (antibody, human IgG4, V domains shown, Deimmunized MH5 derivative, human IgG4(S228P)/Ckappa IgG) VH: QVQLVQSGAEVKKPGSSVKVSCKASGYTFSSAYMIWVRQAPGQGLEWMGDINPYNGGANYAQKFQGRVTITADESTSTAYMELSSLRSEDTAVYYCAREGPYFSNLYVMDYWGRGTLVTVSS VL: EIVLTQSPATLSLSPGERATLSCRASQSVSYEGENYLNWYQQKPGQAPRLLIYAASNRATGIPARFSGSGSGTDFTLTISSPEPEDFAVYYCQLSNEDLLTFGGGTKVEIK | –
6 | – | – | – | – | – | – | – | – | 397 | 0.000673 | 1.69e+06 | 723 | 0.000598 | 827000 | ~1000 | no binding | MH13 (antibody, human IgG4, V domains shown, Deimmunized MH5 derivative, human IgG4(S228P)/Ckappa IgG) VH: QVQLVQSGAEVKKPGSSVKVSCKASGYTFSSNYMIWVRQAPGQGLEWMGDINPYNGGANYAQKFQGRVTITADESTSTAYMELSSLRSEDTAVYYCAREGPYFSNLYVMDYWGQGTLVTVSS VL: EIVLTQSPATLSLSPGERATLSCRASQSVSYEGENYLNWYQQKPGQAPRLLIYAASNRATGIPARFSGSGSGTDFTLTISSPEPEDFAVYYCQLSNEDLLTFGGGTKVEIK | fold of the affinity of hu0301 [7]: ≤ 2 fold; fold of the affinity of hu0301 [8]: ≤ 2 fold
7 | 24 | 6.9e-05 | 2.9e+06 | 100 | 7.4e-05 | 740000 | 1290 | – | 24 | 6.9e-05 | 2.9e+06 | 100 | 7.4e-05 | 740000 | ~1000 | no binding | murine anti-CSF1R antibody 0301 (mu0301), v-domains in human IgG4(S228P) format (antibody, V domains shown) VH: EVQLQQSGPELVRPGASVKMSCKASGYTFTDNYMIWVKQSHGKSLEWIGDINPYNGGTTFNQKFKGKATLTVEKSSSTAYMQLNSLTSEDSAVYYCARESPYFSNLYVMDYWGQGTSVTVSS VL: NIVLTQSPASLAVSLGQRATISCKASQSVDYDGDNYMNWYQQKPGQPPKLLIYAASNLESGIPARFSGSGSGTDFTLNIHPVEEEDAATYYCHLSNEDLSTFGGGTKLEIK | EC50 (read off the curve) [10]: ~200 pM; EC50 (read off the curve) [6]: ~100 pM; EC50 (read off the curve) [11]: ~100 pM
